Consider one substance from PMC3498625.

The target in this test is Wza from E. coli K30, purified DDM-solubilised octameric complex (E. coli K30). As to the kind of experiment: cryo-EM structure.

One may read the stoichiometry N as a count of units in the complex or per binding partner.

For “Wza from E. coli K30, purified DDM-solubilised octameric complex (natural protein)”, the stoichiometry N was determined as 8.
